The target of the assay is T1, cell-surface GRP78 (csGRP78) on mouse alveolar macrophages (primary AMs; MH-S cells) (mouse, UniProt P20029 20-655).
T1 construct: whole, on cells; Endogenous protein on mouse cells; the species follows from the cells used; also called Glucose-Regulated Protein 78 kDa
The assay is described as follows: confocal immunofluorescence on non-permeabilized primary alveolar macrophages, 1 µM rISM1. Here is the method: Cell-surface GRP78 (csGRP78) has been previously detected on mouse peritoneal macrophages (Misra, Gonzalez-Gronow et al., 2005) and human monocytes (Lu, Lai et al., 2010). Primary AMs were treated with recombinant ISM1 (rISM1) to determine if csGRP78 is present and serves as an ISM1 receptor on AMs. It was observed that rISM1 binds to csGRP78 on non-permeabilized AMs (FIG. 6C) and co-localized with GRP78 intracellularly (FIG. 6D), leading to AM apoptosis (FIG. 2K and FIG. 6E). Similarly, rISM1 induced apoptosis in immortalized mouse AM cells (MH-S) upon thapsigargin (TG) pretreatment (FIG. 6F), an ER stress inducer known to promote GRP78 translocation to the cell surface (Li, Ni et al., 2008). […] Increased AMs in Ism1^{Δ/Δ} lungs contributed towards protease-antiprotease imbalance, thus leading to spontaneous COPD in Ism1^{Δ/Δ} mice under ambient air.
(FIG. 6C). […] In FIG. 6C, representative confocal images of primary AMs for rISM1 (red) and GRP78 (green) co-localization after 1 µM rISM1 treatment for 1 hour are shown (Nuclei were stained with DAPI (blue)). Further, mouse AM cell line MH-S cells undergo ISM1 induced apoptosis when the cells were pre-treated with thapsigargin (TG), which induce ER stress and upregulate csGRP78. Denatured ISM1 (boiled) lost this pro-apoptotic function, indicating this pro-apoptotic activity is a function of the ISM1 protein. […]

T1 sequence (P20029 20-655): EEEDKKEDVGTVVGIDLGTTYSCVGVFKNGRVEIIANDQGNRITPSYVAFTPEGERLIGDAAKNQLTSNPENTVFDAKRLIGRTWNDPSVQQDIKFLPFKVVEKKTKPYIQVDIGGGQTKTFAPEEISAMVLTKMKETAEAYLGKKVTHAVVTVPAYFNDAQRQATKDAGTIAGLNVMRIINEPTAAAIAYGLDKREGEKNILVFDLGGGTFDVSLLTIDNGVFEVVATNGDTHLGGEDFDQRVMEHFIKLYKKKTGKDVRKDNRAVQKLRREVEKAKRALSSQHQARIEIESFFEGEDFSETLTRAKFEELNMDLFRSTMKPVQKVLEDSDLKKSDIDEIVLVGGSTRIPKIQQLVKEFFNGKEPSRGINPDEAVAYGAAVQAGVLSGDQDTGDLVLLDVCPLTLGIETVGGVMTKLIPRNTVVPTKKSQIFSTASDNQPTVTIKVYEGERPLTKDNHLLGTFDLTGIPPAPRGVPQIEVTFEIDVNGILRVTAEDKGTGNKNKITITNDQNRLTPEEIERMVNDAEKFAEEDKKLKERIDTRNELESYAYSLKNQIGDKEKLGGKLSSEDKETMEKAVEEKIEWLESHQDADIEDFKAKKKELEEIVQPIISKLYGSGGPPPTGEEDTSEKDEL

B1: recombinant ISM1 (rISM1), mouse mature form without signal peptide, 6xHis-tagged, expressed in E. coli (vector pET-M) (ligand)
chain: SDRQDAAAGNVSGSQLQNNLNLESDSTSETSFPLSKEAPEEHQVVHQPFPRQRFPPETGHPSLQRDGPRSFLLDLPNFPDLSKADINGQNPNIQVTIEVVDGPDSEAEKDQHPENKPSWSLPAPDWRAWWQRSLSLARTNSGDQDDKYDSTSDDSNFLSVPRGWDRPAPGHRTFETKEQPEYDSTDGEGDWSLWSVCSVTCGNGNQKRTRSCGYACIATESRTCDRPNCPGIEDTFRTAATEVSLLAGSEEFNATKLFEVDMDSCERWMSCKSEFLKKYMHKVINDLPSCPCSYPTEVAYSTADIFDRIKRKDFRWKDASGPKEKLEIYKPTARYCIRSMLSLESTTLAAQHCCYGDNMQLITRGKGAGTPNLISTEFSAELHYKVDVLPWIICKGDWSRYNEARPPNNGQKCTESPSDEDYIKQFQEAREYLEHHHHHH
notes: also called mouse rISM1
As to B1, the binding result is listed as “binds”.

Source of the values: US20230190868A1 (NATIONAL UNIVERSITY OF SINGAPORE, published 2023).
